Results as given in article PMC9293632, “PKGIα is activated by metal-dependent oxidation in vitro but not in intact cells” (The Journal of Biological Chemistry, 2022).

Molecular target: the molecule itself
Assay: cross-linking; disulfide cross-link at Cys43 of freshly purified kinase; diluted in KPE buffer (10 mM potassium phosphate, 1 mM EDTA, pH 7.0) with 0, 5 or 15 mM DTT, 1 h on ice; maleimide in SDS sample buffer, nonreducing 9% SDS-PAGE without heating, anti-Flag Western blot

B1: Flag-tagged WT PKGIα (type I cGMP-dependent protein kinase, alpha isoform) (enzyme, UniProt Q13976 1-671, looked up)
chain: MSELEEDFAKILMLKEERIKELEKRLSEKEEEIQELKRKLHKCQSVLPVPSTHIGPRTTRAQGISAEPQTYRSFHDLRQAFRKFTKSERSKDLIKEAILDNDFMKNLELSQIQEIVDCMYPVEYGKDSCIIKEGDVGSLVYVMEDGKVEVTKEGVKLCTMGPGKVFGELAILYNCTRTATVKTLVNVKLWAIDRQCFQTIMMRTGLIKHTEYMEFLKSVPTFQSLPEEILSKLADVLEETHYENGEYIIRQGARGDTFFIISKGTVNVTREDSPSEDPVFLRTLGKGDWFGEKALQGEDVRTANVIAAEAVTCLVIDRDSFKHLIGGLDDVSNKAYEDAEAKAKYEAEAAFFANLKLSDFNIIDTLGVGGFGRVELVQLKSEESKTFAMKILKKRHIVDTRQQEHIRSEKQIMQGAHSDFIVRLYRTFKDSKYLYMLMEACLGGELWTILRDRGSFEDSTTRFYTACVVEAFAYLHSKGIIYRDLKPENLILDHRGYAKLVDFGFAKKIGFGKKTWTFCGTPEYVAPEIILNKGHDISADYWSLGILMYELLTGSPPFSGPDPMKTYNIILRGIDMIEFPKKIAKNAANLIKKLCRDNPSERLGNLKNGVKDIQKHKWFEGFNWEGLRKGTLTPPIIPSVASPTDTSNFDSFPEDNDEPPPDDNSGWDIDF
notes: PKGIα, the alpha isoform of type I cGMP-dependent protein kinase; On oxidation the two chains of the homodimer are joined by a disulfide between their Cys43 residues; source: HEK293T, transiently transfected, purified (anti-Flag beads, eluted in PBS with Flag peptide)
  stoichiometry N: 2
